{
  "source": "paper PMC3220887",
  "about": "(Structure (London, England : 1993), 2011)",
  "target": "the molecule itself",
  "test": "dynamic light scattering",
  "data": [
    {"protein": "D48V-GLTP (human glycolipid transfer protein, D48V mutant) (natural protein, UniProt Q9NZD2 1-209, looked up) MALLAEHLLKPLPADKQIETGPFLEAVSHLPPFFDCLGSPVFTPIKAVISGNITKIKAVYDTNPAKFRTLQNILEVEKEMYGAEWPKVGATLALMWLKRGLRFIQVFLQSICDGERDENHPNLIRVNATKAYEMALKKYHGWIVQKIFQAALYAAPYKSDFLKALSKGQNVTEEECLEKIRLFLVNYTATIDVIYEMYTQMNAELNYKV", "values": [
      {"measurement": "stoichiometry N", "result": 2}
    ]}
  ]
}
